The results in this text go back to PMC3211009, “A Novel Cold-Adapted Lipase from Sorangium cellulosum Strain So0157-2: Gene Cloning, Expression, and Enzymatic Characterization” (International Journal of Molecular Sciences, 2011).

Common to all, as to assay: purified protein
Common to all, as to format: biochemical, Sorangium cellulosum
Holding throughout (settings): 50 mM Tris-HCl pH 8.0, 30 °C

Substrate in data set [1]: CC(=O)Oc1ccc([N+](=O)[O-])cc1
Substrate in data set [2]: CCCC(=O)Oc1ccc([N+](=O)[O-])cc1
Substrate in data set [3]: CCCCCCCC(=O)Oc1ccc([N+](=O)[O-])cc1
Substrate in data set [4]: CCCCCCCCCC(=O)Oc1ccc([N+](=O)[O-])cc1
Substrate in data set [5]: CCCCCCCCCCCC(=O)Oc1ccc([N+](=O)[O-])cc1

As usually defined, the Km is the substrate concentration at which the rate is half of its maximum. The kcat is the number of substrate molecules converted per active site and unit of time at saturation. What is called kcat/Km is the turnover number divided by the Michaelis constant.

B1: r-LipA (Sorangium cellulosum) (protein)
chain: MPADTFTFQADDGRELFVYRWLPDDGARGIFHIAHGMSEHAGRYARLAHALSAAGWAVYANDHRGHGRTARERGELGFFASQGGFQRVVRDLAALIAREQEAHPGLPVVLFGHSMGSSLVQEYLIERGGSIQGAVLSGSSGKPSPLVDAGRLVARAERRRLGERGKSQLLQSMSFDSFNKLFAPARTPFDWLSRDRAEVDGYIADPCCGFPATVSLWIDLLDAMVDIARPERQARIPKDLPVYVFSGSRDPVGGPLRSVTQMIEAYRAAGLRRVTPRIYPGGRHEMLNEINREEVVRDLLAWLDAEVKTEAAPARPARPSAGAAAG
notes: pET-22b(+) NdeI/HindIII, His-tag (C-terminal by vector and stop-less reverse primer), E. coli BL21(DE3), Ni-NTA; tryptic peptides GELGFFASQGGFQR, SVTQMIEAYR; GHSMG at 112-116, Ser114/Asp250/His284
As to B1, the Km came to 174 ± 6 µM in data set [1]; 366 ± 211 µM in data set [2]; 704 ± 26 µM in data set [3]; 1664 ± 47 µM in data set [4]; 1946 ± 59 µM in data set [5]. The kcat was found to be 29.2 ± 0.977 s⁻¹ in data set [1]; 13.6 ± 0.735 s⁻¹ in data set [2]; 3.29 ± 0.114 s⁻¹ in data set [3]; 1.56 ± 0.036 s⁻¹ in data set [4]; 1.21 ± 0.032 s⁻¹ in data set [5]. The kcat/Km in data set [1] was determined as 168000 ± 2100 M⁻¹ s⁻¹; in data set [2], 37170 ± 128 M⁻¹ s⁻¹; in data set [3] it was 4677 ± 13 M⁻¹ s⁻¹; in data set [4], 940 ± 5 M⁻¹ s⁻¹; in data set [5] it was 619 ± 2 M⁻¹ s⁻¹.
